The labels stand for the following.
B1: 337 Fab (Fab, V domains shown)
VH: QVQLVESGGGVVQPGRSLRLSCAASGFSFSTYGMHWVRQAPGKGLEWVALIWHDGSKKFYSESVRGRFTISRDNSMDTLYLQMSSLRAEDTAVYYCARDGADYFDSTGGAFDIWGQGTMVIVSS
VL: EIVMTQSPATLSVSPGERATLSCRASQSVSSNLAWYQQKPGQAPRLLIYGASTRATGIPARFSGSGSGTEFTLTISSLQSEDFATYYCQQYKTWWTFGQGTKVEIK
notes: also called mAb 337; source: ExpiCHO cells, purified (mAb Select PrismA or Capture Select, SEC)
B2: 311 Fab (Fab, V domains shown)
VH: QVQLVESGGGVVPPGRSLRLSCATSGFTFSNYGMHWVRQAPGKGLEWVAIIWYDGSRNFYAASVEGRFTISRDNSKNTLYLQMNSLRVEDTAVYYCARAAYYDTSGYGDYWGQGTLVTVSS
VL: QSVLTQPPSVSGAPGQTVTISCTGGSSNIGAGYDVHWYQQLPGTAPKLLIYGNINRPSGVPDRFSGSKSGTSASLAITGLQAEDEADYYCQSYDRRLSGSWVFGGGTKLTVL
notes: source: ExpiCHO cells, purified (mAb Select PrismA or Capture Select, SEC)
B3: 311R Fab (Fab, V domains shown)
VH: B2 VH with N31S, R57N, N58K, E65K
VL: B2 VL with R95S, R96S
notes: also called Fab311R; germline-reverted 311; source: ExpiCHO cells, purified (mAb Select PrismA or Capture Select, SEC)
B4: 334 Fab (Fab, V domains shown)
VH: QVQLVESGGGVVQPGRSLTLSCAASGFTFSNYGMHWVRQTPGKGLAWVAIIWYDGSKTYYEDSVKGRFTISRDNSKNTLYLQMNSLRVDDTAVYYCARVRHSSSRHGSAFDLWGQGTLVTVSS
VL: VIQMTQSPSTLSASVGDRVTITCRASQSVSTWLAWYQQKPGQGPKLLIYEASSLESGVPSRFSGSGSGTEFTLTISSLQPDDFATYYCQQYNSYSFWTFGQGTKVEIK
notes: also called mAb 334; source: ExpiCHO cells, purified (mAb Select PrismA or Capture Select, SEC)
B5: 239 Fab (Fab, V domains shown)
VH: QVQLVESGGGVVQPGRSLRLSCAASRLTFRNFGMHWVRQTPGKGLEWVAVIWHDGSNKFYADSVEGRFTISRDNSKNTLYLQMNSLRDEDTAIYYCAKDWGGASDRVFDYWGRGTLVIVSS
VL: DIQMTQSPSTLSASVGDRVTITCRASQSVSTSLAWYQQKPGKAPNLLIYQASTLYRGVPSRFSGSGSGTEFTLTIGSLQPDDFATYYCQHYNSYSRITFGQGTRLEIK
notes: also called mAb 239; source: ExpiCHO cells, purified (mAb Select PrismA or Capture Select, SEC)
B6: 239R Fab (Fab, V domains shown)
VH: B5 VH with R30S, N31S, F32Y, E65K
VL: B5 VL with R56T
notes: also called germline-reverted 239; source: ExpiCHO cells, purified (mAb Select PrismA or Capture Select, SEC)
B7: 356 Fab (Fab, V domains shown)
VH: QVQLVESGGGVVQPGRSLRLSCAASGFTFRNFGMHWVRQTPGKGLEWVAVIWHDGSNKFYADSVEGRFTISRDNSKNMIYLQMNSLRVEDTAIYYCARDSLFYDHDNSGYYGYWGQGTLVTVSS
VL: QIVMTQSPATVSVSPGERATLSCRASRSVTSKLAWYQQKPGQAPRLLIYGASTRATGIPARFSGSGSGTEFTLTISSLQSEDFAVYFCQQYNNGFTFGPGTKVDFK
notes: also called mAb 356; source: ExpiCHO cells, purified (mAb Select PrismA or Capture Select, SEC)
B8: 356R Fab (Fab, V domains shown)
VH: B7 VH with R30S, N31S, F32Y, E65K
VL: B7 VL with Q1E, R27Q
notes: also called germline-reverted 356; source: ExpiCHO cells, purified (mAb Select PrismA or Capture Select, SEC)
B9: 227 Fab (Fab, V domains shown)
VH: QVQLVQSGGGVVQPGRSLRLSCVTSGFTFPAFGMHWVRQAPGKGLEWVAVIWYDGSKKYYADSVRGRFTISRDNSRNTLYLQMHSLRAEDTAVYYCARVKNYESSGYSQCLDYWGQGVLVTVAS
VL: QSVLTQPPSVSGAPGQRVTISCTGSSSNIGAGYDVHWYQQLPGTAPKLLIYGNGNRPSGVPDRFSGSKSGTSVSLAITGLQAEDEADYYCQSYDSSLSAFVFGTGTKVTVL
notes: also called mAb 227; source: ExpiCHO cells, purified (mAb Select PrismA or Capture Select, SEC)
B10: 364 Fab (Fab, V domains shown)
VH: QVQLVESGGGVVQPGGSLRLSCAASGFTFSGYGMHWVRQVPGKGLEWVAIIWFDGSQKYYADSVQGRFTISRDNSKKTLFLRMNSLRAEDTAVYYCAKVHDDEPTQDYWGQGTLVTVSS
VL: DIQMTQSPSTLSASVGDRVTITCRASQGISTSLAWYQQKPGKAPKLLIYKASSLESGVPSRFSGSGSGTEFTLTITSLQPEDFATYYCQQYKRYWTFGQGTKVEIK
notes: also called mAb 364; source: ExpiCHO cells, purified (mAb Select PrismA or Capture Select, SEC)

Residue numbers refer to the chain shown, from its start. Primed or numbered codes have the meaning given here. No end group written: not given here. Biotin′ = biotin

In one experiment the target is T1, NPNA4 peptide, biotinylated (for BLI) (Plasmodium falciparum).
T1 construct: source: synthetic peptide, InnoPep Inc
T1 chain: NPNANPNANPNANPNA-{Biotin′}
Kind of experiment: BLI. The conditions noted are these: both partners purified.
As for B1, the binding result was “binds”.

As for B2, the binding result is “binds”.

Take B3: the binding result is on record as “binds”.

B4: the binding result is “binds”.

For B5, the binding result was “binds”.

In the case of B6, the “fold lower apparent affinity than 239” value was roughly 2 fold.

Consider B7, for which the binding result is on record as “binds”.

On to B8, for which the “fold higher apparent affinity than 356” value is roughly 2 fold.

Consider B9, for which the binding result was “binds”.

As to B10, the binding result was “binds”.

Another experiment deals with T2, NPNA8 peptide, biotinylated (for BLI) (Plasmodium falciparum).
T2 construct: source: synthetic peptide, InnoPep Inc
T2 chain: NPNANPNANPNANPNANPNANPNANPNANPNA
The experiment in a line: BLI. The conditions noted are these: both partners purified.
B1: the binding result is “binds”.

On to B2, for which the binding result is “binds”.

In the case of B3, the binding result is listed as “binds”.

On to B4, for which the binding result was “binds”.

For B5, the binding result is reported as “binds”.

As for B6, the binding result was “binds”.

As for B7, the binding result is recorded as “binds”.

With B8, the binding result is reported as “binds”.

With B10, the binding result is on record as “binds”.

The target of a further experiment is T3, NPNA8 peptide (for cryo-EM) (Plasmodium falciparum).
T3 construct: source: synthetic peptide, InnoPep Inc
T3 chain: T2 chain
The experiment in a line: cryo-EM structure. The note with it: both partners purified.
Broadly, the stoichiometry N is a count of units in the complex or per binding partner. In the case of B9, the “stoichiometry N” value worked out at 4 Fabs per NPNA8 peptide.

For the origin of these results see publication doi:10.1101/2022.09.20.508747, “Affinity-matured homotypic interactions induce spectrum of PfCSP-antibody structures that influence protection from malaria infection” (bioRxiv, 2022).
